T1: cynomolgus monkey FcγRIIa2 extracellular domain, His-tagged (cynomolgus monkey)
T1 construct: also called cyno FcgRIIa2; cynoFcγRIIa2; not shown: His-tag added to the C-terminus
T1 chain: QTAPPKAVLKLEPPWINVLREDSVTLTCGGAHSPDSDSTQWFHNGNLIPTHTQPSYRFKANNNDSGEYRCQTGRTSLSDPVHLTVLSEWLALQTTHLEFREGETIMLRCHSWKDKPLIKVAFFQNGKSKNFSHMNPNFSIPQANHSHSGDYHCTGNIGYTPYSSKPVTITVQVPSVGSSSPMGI

T2: cynomolgus monkey FcγRIIa3 extracellular domain, C-terminal His-tag (cynomolgus monkey)
T2 construct: also called cyno FcγRIIa3; cynoFcgRIIa3; not shown: His-tag added to C-terminus
T2 chain: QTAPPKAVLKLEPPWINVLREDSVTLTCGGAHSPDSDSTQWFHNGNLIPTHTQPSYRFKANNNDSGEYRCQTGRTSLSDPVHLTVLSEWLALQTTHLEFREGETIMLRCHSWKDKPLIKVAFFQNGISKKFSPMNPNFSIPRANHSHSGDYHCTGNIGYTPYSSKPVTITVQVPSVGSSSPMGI

T3: human FcγRIIaH extracellular domain, C-terminal His-tag (human, UniProt P12318 34-217)
T3 construct: also called human FcγRIIa (type H); FcgRIIaH; not shown: His-tag added to C-terminus
T3 sequence: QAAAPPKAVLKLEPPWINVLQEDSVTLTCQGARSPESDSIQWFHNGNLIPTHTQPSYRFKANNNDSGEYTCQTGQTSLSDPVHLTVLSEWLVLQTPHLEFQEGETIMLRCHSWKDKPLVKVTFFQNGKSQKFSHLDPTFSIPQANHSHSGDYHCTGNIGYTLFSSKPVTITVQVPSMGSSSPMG

T4: cynomolgus monkey FcγRIIa2 extracellular domain, C-terminal His-tag (cynomolgus monkey)
T4 construct: also called cyno FcγRIIa2; cynoFcgRIIa2; not shown: His-tag added to C-terminus
T4 chain: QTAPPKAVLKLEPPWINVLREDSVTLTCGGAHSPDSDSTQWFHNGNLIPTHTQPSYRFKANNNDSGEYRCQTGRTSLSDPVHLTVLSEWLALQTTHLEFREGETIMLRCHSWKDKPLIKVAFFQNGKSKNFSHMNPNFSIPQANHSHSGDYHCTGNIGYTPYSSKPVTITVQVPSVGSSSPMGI

T5: human FcγRIIb extracellular domain, C-terminal His-tag (human, UniProt P31994 43-217)
T5 construct: also called humanFcgRIIb; not shown: His-tag added to C-terminus
T5 sequence: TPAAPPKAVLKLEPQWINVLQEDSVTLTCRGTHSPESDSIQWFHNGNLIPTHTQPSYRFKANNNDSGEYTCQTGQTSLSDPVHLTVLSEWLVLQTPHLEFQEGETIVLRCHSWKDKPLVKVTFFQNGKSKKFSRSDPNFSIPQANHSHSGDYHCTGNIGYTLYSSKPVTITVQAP

T6: cynomolgus monkey FcγRIIb extracellular domain, C-terminal His-tag (cynomolgus monkey)
T6 construct: also called cyno FcγRIIb; cynoFcγRIIb; not shown: His-tag added to C-terminus
T6 chain: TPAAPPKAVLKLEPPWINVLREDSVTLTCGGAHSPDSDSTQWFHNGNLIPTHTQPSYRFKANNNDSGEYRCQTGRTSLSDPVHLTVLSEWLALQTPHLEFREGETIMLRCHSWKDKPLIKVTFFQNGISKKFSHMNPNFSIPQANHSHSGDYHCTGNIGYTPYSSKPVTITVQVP


Tests used:
[1] = target: T7, human FcγRIIIaV extracellular domain, His-tagged (human, UniProt P08637 17-208); assay: SPR; KD of SG1 divided by KD of the variant
T7 construct: also called human FcgRIIIaV; not shown: His-tag added to the C-terminus
T7 sequence (P08637 17-208 F176V): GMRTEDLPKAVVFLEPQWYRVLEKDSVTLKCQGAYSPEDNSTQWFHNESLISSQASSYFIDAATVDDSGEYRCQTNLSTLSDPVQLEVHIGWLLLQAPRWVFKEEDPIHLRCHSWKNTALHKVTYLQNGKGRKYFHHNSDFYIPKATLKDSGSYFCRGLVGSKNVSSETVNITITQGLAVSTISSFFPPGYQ
Method: (§1) Regarding such interactions, KD values were calculated using the following 1:1 binding model described in BIACORE® T100 Software Handbook BR1006-48 Edition AE.
(§2) The behavior of interacting molecules according to the 1:1 binding model on BIACORE® can be described by Equation 1: Req=C·R max/(KD+C)+RI, wherein, Req is a plot of steady-state binding levels to analyte concentration. C is concentration, RI is bulk refractive index contribution in the sample, and Rmax is analyte binding capacity of the surface. When this equation is rearranged, KD can be expressed as Equation 2: KD=C·Rmax/(Req−RI)−C. KD can be calculated by substituting the values of Rmax, RI, and C into Equation 1 or Equation 2. From the current measurement conditions, RI=0, C=2 μmol/L can be used.
(§3) The resultant variants were expressed using M103202L889-SK1 as light chain and their affinity to human and cynoFcγRs were evaluated (Table 21).

[2] = target: T1, cynomolgus monkey FcγRIIa2 …; assay: SPR; KD of SG1 divided by KD of the variant
Method: as §1, §2, §3

[3] = target: T2, cynomolgus monkey FcγRIIa3 …; assay: SPR (BIACORE); KD of SG1 / KD of variant
[4] = target: T3, human FcγRIIaH extracellular domain, …; assay: SPR (BIACORE); KD of SG1 / KD of variant
[5] = target: T8, cynomolgus monkey FcγRIIIaS extracellular domain, C-terminal His-tag (cynomolgus monkey, UniProt A3RFZ7 21-206 (rhesus entry)); assay: SPR (BIACORE); KD of SG1 / KD of variant
T8 construct: also called cyno FcγRIIIaS; cynoFcγRIIIaS; not shown: His-tag added to C-terminus
T8 sequence (A3RFZ7 21-206): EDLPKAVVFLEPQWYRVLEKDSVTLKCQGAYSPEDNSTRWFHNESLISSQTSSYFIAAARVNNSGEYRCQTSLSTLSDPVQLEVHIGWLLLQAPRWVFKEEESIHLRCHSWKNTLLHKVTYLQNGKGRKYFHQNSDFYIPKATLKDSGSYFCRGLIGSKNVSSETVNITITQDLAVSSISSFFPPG

[6] = target: T9, human FcγRIIIaV extracellular domain, C-terminal His-tag (human, UniProt P08637 17-208); assay: SPR (BIACORE); KD of SG1 / KD of variant
T9 construct: also called FcgRIIIaV; not shown: His-tag added to C-terminus
T9 sequence (P08637 17-208 F176V): as the sequence (P08637 17-208 F176V) above

[7] = target: T4, cynomolgus monkey FcγRIIa2 …; assay: SPR (BIACORE); KD of SG1 / KD of variant
[8] = target: T5, human FcγRIIb extracellular domain, …; assay: SPR (BIACORE); KD of SG1 / KD of variant
[9] = target: T6, cynomolgus monkey FcγRIIb extracellular …; assay: SPR (BIACORE); KD of SG1 / KD of variant
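Further: relative to parent M103205H795-SG1 carrying the SG1 human heavy chain constant region.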

Row | KD fold (SG1 = 1) [1] [fold] | KD fold (SG1 = 1) [2] [fold] | KD fold (SG1 = 1) [3] [fold] | KD fold (SG1 = 1) [4] [fold] | KD fold (SG1 = 1) [5] [fold] | KD fold (SG1 = 1) [6] [fold] | KD fold (SG1 = 1) [7] [fold] | KD fold (SG1 = 1) [8] [fold] | KD fold (SG1 = 1) [9] [fold] | Binder
1 | 1 | 1 | – | – | – | – | – | – | – | MS1032LO06-SG1 (M103205H795-SG1/M103202L889-SK1) (antibody, human IgG1, kappa, Anti-latent myostatin antibody; Parent of the Fc variants; copies: 2 + 2) heavy: not shown light: DIVMTQSPATLSLSPGERATLSCTSSQSVYHANWLSWFQQKPGQPPKLLIYWASTLAYGVPSRFSGSGSGTDFTLTISSLQPEDAATYYCAGGYGGGRYAFGQGTKVEIKRTVAAPSVFIFPPSDEQLKSGTASVVCLLNNFYPREAKVQWKVDNALQSGNSQESVTEQDSKDSTYSLSSTLTLSKADYEKHKVYACEVTHQGLSSPVTKSFNRGEC
2 | 0.07 | 1.3 | – | – | – | – | – | – | – | M103205H795-MY261/M103202L889-SK1 (antibody, human IgG1, kappa, copies: 2 + 2) heavy: QVTLKESGPVLVKPTETLTLTCTVSGIDLSHDDISWVRQAPGKGLEWVGIISYAGSTYYASWAKGRLTISKDTSKNQVVLTMTNMDPVDTATYYCARGVPAYSHGGDLWGQGTLVTVSSASTKGPSVFPLAPSSKSTSGGTAALGCLVKDYFPEPVTVSWNSGALTSGVHTFPAVLQSSGLYSLSSVVTVPSSSLGTQTYICNVNHKPSNTKVDKKVEPKSCDKTHTCPPCPAPELLHGPSVFLFPPKPKDTLMISRTPEVTCVVVDVSDEDPEVKFNWYVDGVEVHNAKTKPREEQYNSTYRVVSVLTVLHQDWLNGKEYKCKVSNKALPKPIEKTISKAKGQPREPQVYTLPPSREEMTKNQVSLTCLVKGFYPSDIAVEWESNGQPENNYKTTPPVLDSDGSFFLYSKLTVDKSRWQQGNVFSCSVMHEALHNHYTQKSLSLSP light: DIVMTQSPATLSLSPGERATLSCTSSQSVYHANWLSWFQQKPGQPPKLLIYWASTLAYGVPSRFSGSGSGTDFTLTISSLQPEDAATYYCAGGYGGGRYAFGQGTKVEIKRTVAAPSVFIFPPSDEQLKSGTASVVCLLNNFYPREAKVQWKVDNALQSGNSQESVTEQDSKDSTYSLSSTLTLSKADYEKHKVYACEVTHQGLSSPVTKSFNRGEC
3 | – | – | 4.5 | 1.2 | 0.09 | 0.06 | 3.9 | 7.8 | 4.7 | M103205H795-PK2 / M103202L889-SK1 (antibody, human IgG1, kappa, CH with G236N/H268E/A330K/P396M/S400R/D413K against SG1 (EU numbering); also called MS1032LO06-PK2; MS103205H795-PK2) heavy: QVTLKESGPVLVKPTETLTLTCTVSGIDLSHDDISWVRQAPGKGLEWVGIISYAGSTYYASWAKGRLTISKDTSKNQVVLTMTNMDPVDTATYYCARGVPAYSHGGDLWGQGTLVTVSSASTKGPSVFPLAPSSKSTSGGTAALGCLVKDYFPEPVTVSWNSGALTSGVHTFPAVLQSSGLYSLSSVVTVPSSSLGTQTYICNVNHKPSNTKVDKKVEPKSCDKTHTCPPCPAPELLNGPSVFLFPPKPKDTLMISRTPEVTCVVVDVSEEDPEVKFNWYVDGVEVHNAKTKPREEQYNSTYRVVSVLTVLHQDWLNGKEYKCKVSNKALPKPIEKTISKAKGQPREPQVYTLPPSREEMTKNQVSLTCLVKGFYPSDIAVEWESNGQPENNYKTTPMVLDRDGSFFLYSKLTVKKSRWQQGNVFSCSVMHEALHNHYTQKSLSLSP light: DIVMTQSPATLSLSPGERATLSCTSSQSVYHANWLSWFQQKPGQPPKLLIYWASTLAYGVPSRFSGSGSGTDFTLTISSLQPEDAATYYCAGGYGGGRYAFGQGTKVEIKRTVAAPSVFIFPPSDEQLKSGTASVVCLLNNFYPREAKVQWKVDNALQSGNSQESVTEQDSKDSTYSLSSTLTLSKADYEKHKVYACEVTHQGLSSPVTKSFNRGEC

Source: patent publication US20200317768A1 (published 2020)
